{"source": "patent US9394379B2", "about": "“Process for producing water-soluble hyaluronic acid modification” (Chugai Seiyaku Kabushiki Kaisha, priority 2004, dated 2016)", "key": {"[1]": {"test": "Residence time in blood of HA-GLP-1 mutant conjugate (Test Example 5)", "format": "in vivo, rat", "description": "The HA-GLP-1 mutant conjugate solution obtained in Example 15-2 was diluted with PBS that contained 0.05% Tween 80 (pH 7.4; hereinafter also referred to as “solvent Z”), and the thus diluted solution was then administered at a dosage of 50 μg/kg into the vein of a rat as a single dose. Thereafter, 1, 4, 8, 24, 48, 72, 96, and 168 hours after the administration, the blood was collected (heparin treatment). The blood was then centrifuged, so as to obtain plasma. This plasma sample was cryopreserved at −20° C. or less until measurement was carried out.\nThereafter, they were analyzed using a microplate reader. Conditions for measurement are described below:\nMicroplate reader: SPECTRA MAX GEMINI (manufactured by Molecular Devices)\nDetection: Fluorescence (EX: 355 nm, EM: 460 nm)\nThe HA-GLP-1 mutant conjugate solution obtained in Example 15-2 was diluted with solvent Z and Assay Buffer included with kit W, so as to prepare standard solutions having concentrations of 12.8, 6.4, 3.2, 1.6, 0.8, 0.4, 0.2, 0.1 μg/ml and 0 μg/ml. Thereafter, 5 μl of normal rat plasma was added to this standard solution, so as to prepare a sample used for calibration curve.\nAssay Buffer included with kit W was added to the HA-GLP-1 mutant conjugate-administered rat plasma sample, so as to prepare a measurement sample.\nThe concentration of the HA-GLP-1 mutant conjugate in plasma was calculated based on the calibration curve obtained from the fluorescence intensity of each standard sample using analysis software SOFTmax PRO (manufactured by Molecular Devices).\nWith regard to data of a change in the concentration in blood of the administered HA-GLP-1 mutant conjugate, pharmacokinetic parameters were calculated using WinNonlin Ver 4.0.1 (manufactured by Pharsight). With regard to a change in the concentration in plasma of each individual, model-independent analysis was carried out, so as to calculate the mean residence time in blood (MRT). The half-life (t1/2) was calculated using the data of the final 3 measurable points of each individual."}, "[2]": {"system": "BKS.Cg-+Lepr^db/+Lepr^db/Jcl mouse", "test": "Oral sugar tolerance test", "format": "in vivo", "details": "for Hypoglycemic ratio: mean value", "description": "8-week-old male BKS.Cg-+Lepr^db/+Lepr^db/Jcl mouse (manufactured by CLEA Japan, Inc.) was subjected to fasting overnight. Thereafter, the HA-GLP-1 mutant conjugate solution obtained in Example 15-2 that had been diluted with solvent Z (peptide amount: 1.5 μg/kg, 15 μg/kg, or 150 μg/kg) or solvent Z was intravenously administered to the above […]. 1 minute after the intravenous administration, a 50% glucose solution (Otsuka Pharmaceutical Co., Ltd.) was orally administered at a dosage of 3 g/kg. […]\nThe blood was collected from the tail portion before administration of glucose (value at hour 0), and 0.5, 1, 2, and 4 hours after the administration of glucose. Thereafter, the blood glucose level was measured by the enzyme method (hexokinase method, Autosera S GLU (Daiichi Pure Chemical Co., Ltd.; equipment name: BioMajesty JCA-BM1250 (JEOL Ltd.)).\nThe blood glucose level was calculated by the following hypoglycemic ratio: […]\nThe mean value and standard deviation of each group were calculated from the calculated hypoglycemic ratio."}, "[3]": {"details": "intravenously administered to a rat"}, "[4]": {"details": "rat vein, 50 μg/kg single dose, mean value"}}, "note": "Where no end group is shown, it is not given here."}
{"substance": "HA-GLP-1 mutant conjugate: GLP-1 mutant (Gly at position 8, Cys at position 37) bound to HA-AM-MI/SUC; 3.7 GLP-1 mutant/HA (mol/mol) (HGEGTFTSDVSSYLEGQAAKEFIAWLVKGRC; also: bound to modified hyaluronic acid HA-AM-MI/SUC, 3.7 peptide per HA, attachment site not given here; UniProt P01275 98-128, looked up, variant A8G G37C)", "values": [{"measurement": "MRT", "setting": "[1]; [3]", "result": 30.2, "unit": "h"}, {"measurement": "half-life", "setting": "[1]; [3]", "result": 23.6, "unit": "h"}, {"measurement": "Distribution volume", "setting": "[1]; [4]", "result": 53.4, "unit": "mL/kg"}, {"measurement": "Mean residence time in blood", "setting": "[1]; [4]", "result": 30.2, "unit": "h"}, {"measurement": "Total clearance", "setting": "[1]; [4]", "result": 1.8, "unit": "mL/h/kg"}, {"measurement": "half-life", "setting": "[1]; [4]", "result": 23.6, "unit": "h"}, {"measurement": "hypoglycemic action compared with GLP-1 (Human, 7-37)", "setting": "[2]; oral sugar tolerance test", "result": "significantly increased"}, {"measurement": "Hypoglycemic ratio", "setting": "[2]; peptide amount 1.5 μg/kg intravenous 1 minute before oral glucose 3 g/kg", "result": 3.0, "unit": "%"}, {"measurement": "Hypoglycemic ratio", "setting": "[2]; peptide amount 15 μg/kg intravenous 1 minute before oral glucose 3 g/kg", "result": 60.1, "unit": "%"}, {"measurement": "Hypoglycemic ratio", "setting": "[2]; peptide amount 150 μg/kg intravenous 1 minute before oral glucose 3 g/kg", "result": 120.3, "unit": "%"}]}
